Reference: a protein production outcome set (Wang et al. 2014)

Experiment: label from the status in PepcDB records
In the case of “MIWRGEKLISNKVKIVRLLNKSKKSLLRGIFSRTTVIAILLILQLLFLLASYSWLEQYRVWLATVEHILTIGAVLYLVNSEMDALSRVTWLILVMIAPLLGAMFLMYTKFDWGYRGLKQRLETLIDESQIYLEDDPETLNQLKSSTSTTYHLVQYFEKAHGNFPVYRNTDVTFLPTGEAFFEKMKEELLKAKKYIFLEFFIIDEGIMWGEILSILEQKVEEGVEVRILYDGMIEITKLSFDYTKRLEKIGIKAKAFSPISPFISTYYNYRDHRKIVVIDGVVGMTGGVNLADEYINHIELFGHWKDSGIMLKGKAVDSFLLLFLQMWSITEEKMLVAPYLGVHDDLVENEGYVIPYGDSPLDTDKVGENVYIDILNHAREYVYIMTPYLILDSELEHAIQFAAERGVDVRIIMPGIPDKPIPYALAKTYYQALTKSGVKIYEYTLGFVHSKIFLSDNTKAVVGTINLDYRSLYHHFECAVYLYKVDAIQDIYRDYMDTLNKSRLVSLKDINNIPKFQKVIGIVTKTIAPLL”, the protein production is reported as “failed”.
For “MIYENHANTAENNGPLALVLGANGGVGSHVLKMLLQRGWQVRALTRQRVAAGASDGIERVTGDVMNRQDVMDAAKGATLIVHAVNPPGYRDWERQVLPMLDNTIAAAEACGARILLPGTVYNFGPDAFPLLKEDSPQQPFTRKGALRVEMERRLKMASMRGVPVLIVRAGDFFGPDAKNNWFSQMLVRPGKPVRSVQNPAAPHAGHQWAYLPDVAETIGRLLDRSGELPPFAVYHMEGFWDFDGLQLVGAIERAVGRPVKMRRMSWLAIKLAAPFVPLFREVLEMQYLWHMPLRMSNGKLTDFLGAEPKTPVDIAVSATLTSLGCIEQPRVPASLHRPVDAGGRV”, the protein production was “failed”.
For “MIYLFSHAGLRDLRDFIDRSTLFAFDLDGTLAPIVSDPAGIMIPPDVHERLVRLNGTASVAVVTGRARVDAARHLGFAPRFLVGNHGAEGLPGADAAEREFIGLCRGWMTQLGELLPEGEGTGIVMEDKSATLSLHYRNAPDRENAHQRILAAVSRLLPAPRRVSGKLVENLVPAAAPHKGDALRCIMRHLGCARALFVGDDVTDEDVFRLGDEAIFGIRVGNSGGSAARYFIRGQDEMAPLLDEILAVL”, the protein production was “failed”.
With “MIYMPIVVAVDKKSDRAERVLRFAAEEARLRGVPVYVVHSLPGGGRTKDEDIIEAKETLSWAVSIIRKEGAEGEEHLLVRGKEPPDDIVDFADEVDAIAIVIGIRKRSPTGKLIFGSVARDVILKANKPVICIK” the protein production was “not failed”.
For “MKAANSGRTAAALECFERVVKLQSTPVNWSYLAFCVARERQQFEHATRLCEEAVRREPRSSVLYLNLGKVYLLSGRKDDAIRTFRQGLLYERNTLIESELRRLGLRKPPVLNFLAREHPVNKYLGIMLKKLKIRLEHHHHHH”, the protein production was “failed”.
In the case of “MKAFFSFVIRWVIPLLGLIALSLIIWFIGPLLEFLVPEGRRWALIIFIFALWIGYRVFCIIQARRNAAKVLQSLAADTPPDPDSVATAEELAALRQRMDEALALLKKAKLGGDERRNLYELPWYVIIGPPGSGKTTALVNSGLHFPLAAQLGAGAVRGVGGTRNCDWWFTDQAVLLDTAGRYTTQDSHATVDKAAWLGFLDLLKTQRSRRPIDGAFVAISLSDLLLGSEAERAAHAAAIRLRIQELYTQLGVRFPIYLMLTKLDLVPGFMEFFDSLSKEERAQVWGMTFALDDGKSGDSPLAHLPAELAALEQRLNERLVERLQQERDPARRDLIYGFPQQFAALKESLQSFLEGVFKPNAFEERVLLRGVYFTSGTQEGSPIDRLIGAMAQSMNLDRQHLARQTGTGRSYFIEKLFSAVAFAERGLVGVNPKVERRRKWIARGALAGTVALVLVVSTLWIISYRANQAYIAQVDQRVGPVRQDVQNLSPAQRDVLAVLPLLNATRHLAGDAPGWAEGLGLYQGDMLEAESASVYRKLLVAVFAPRLMTRIEEQLHSGGNSDFLYEGLKAYLMLADSEHYDPDFIKAWITLDWDHTLARDLPPEQRQALTGHLQALFEKHPPNARLDQRLIDDLRRQLQQLPVAQRVYDRVKRAKLPDGVPDFRLSEAGGRDAALVFTRKSGKPLSEPLSGLFTAKGYRQGFLLASLNQAGTLAEEQWVLGRDQADQQNVASLAADVRRLYFQDYLRQWDALLADIDFVPITSVAQAADVLRILSGPTSPLKKLLVAVAKETDLQQEERLLAAQGQKVEGGVDQLKQRLGNLLGQEQSANPAAVASSEDPVSAHFAELNSLVSKGEGEPAAIDGLLADMNALYVQVSAMVGASGDALLGEAKNQASAAAARVSLTAERQPPVVQGLVKSVVGSTTNTMMGGVRNQLNAAWVSEVVNVYRQSLSGRYPMSPGSSRDATLEDFGQFFGTGGVMDNYFRKYLQPYVNTSTTTWSWQPGAAQKLGISPGVLQTFQRASNIRDAFFRSSGGTQPAVRFELKPVAMDANISQFLLDLDGQQLSYDHGPSRPVAMQWPNPGSIGVVRLSIMPPSATGRSGITLDGPWAWFRLLEQSDLTATNSPDRFNLRLRVDGASISYELRASSAFNPFKSRVLSGFSLPERL”, the protein production is reported as “failed”.
For “MKAKEVSLVALFVALTSVGAQISVSIGPVPLTLQVFFVILAGLVLGPKLGFLSILIYDILGALGIPVFAGFSGGIAHILGPTGGYIIAFPIATFIAGLGRGKVRYLTSLMGLLVIYLIGWMWLARFVGFNKAFILGVLPFIVPDIVKAATAVIIAERLQGNT”, the protein production was “failed”.
For “MKANAIASDIKISKRDLEVAALAVIGTVAYIHYLWSFVLKITSPILIARGIFETTYSVLSIGLAKYVRIYYPLGIASSFTGAALTVIKLHLYESEIFSIINIVFDIFSVPVCAFLFIKNMEVINWH”, the protein production was “failed”.
In the case of “MKANNHFKDFAWKKCLLGASVVALLVGCSPHIIETNEVALKLNYHPASEKVQALDEKILLLRPAFQYSDNIAKEYENKFKNQTALKVEQILQNQGYKVISVDSSDKDDLSFSQKKEGYLAVAMNGEIVLRPDPKRTIQKKSEPGLLFSTGLDKMEGVLIPAGFVKVTILEPMSGESLDSFTMDLSELDIQEKFLKTTHSSHSGGLVSTMVKGTDNSNDAIKSALNKIFANIMQEIDKKLTQKNLESYQKDAKELKGKRNR”, the protein production is reported as “failed”.
For “MKAPELQIQQWFNSATDLTLADLRGKVIVIEAFQMLCPGCVMHGIPLAQKVRAAFPEDKVAVLGLHTVFEHHEAMTPISLKAFLHEYRIKFPVGVDQPGDGAMPRTMAAYQMRGTPSLLLIDKAGDLRAHHFGDVSELLLGAEIATLLGEAAPSVQKQAGTPQGDANCDNDGCTV”, the protein production was “not failed”.
In the case of “MKAYTKLLASLVLLSGAYGAPGFANTPELSDKTFRTVNKVQELIATEKYADALSKLNSALSSTSKKQYDRAVLLQQMGFLYSLQDDYPKAAKYFADALSLNALPVPVAQQVRYSLAQLYLAEGQFKKSVATMNEWFKIAETTEEKPQAHAYITLASAYVQLEDYKNAIPPAKQAIAMSKEPSESWYQLLMSAHYELKQFKSVAGVLKILTTKYPKNKRYWTQLSGIYMELNQERNALSTLEMAHKMGLLEGEKEYLRLVNFQAYQGVPFRAAKTLQAAFDNGHVERNAKNLETLGSFWQQAQELEQAIDVYQQAYNLAPQAKTQIKIARLMILDKQYTEATKFTQNAAPDAKHEQKGELSYIRGMAYFELNQPSNALKAMKSAAQSPDMRAMASPWINFLESQG”, the protein production is reported as “failed”.
For “MKCKDDMSAVLTAEQALKLVGEMFVYHMPFNRALGMELERYEKEFAQLAFKNQPMMVGNWAQSILHGGVIASALDVAAGLVCVGSTLTRHETISEDELRQRLSRMGTIDLRVDYLRPGRGERFTATSSLLRAGNKVAVARVELHNEEQLYIASATYMVG”, the protein production was “failed”.
For “MKCKRLNEVIELLQPAWQKEPDLNLLQFLQKLAKESGFDGELADLTDDILIYHLKMRDSAKDAVIPGLQKDYEEDFKTALLRARGVIKE”, the protein production was “failed”.
In the case of “MKCNERDCNNDNGEEDEKDTNTTIAVKLPATTALIVGYDPIDDQHKALSLKRKRTEKLSFINALKGFVQWGSEAVFIEYKGKLASIDLETVKSLGALMDSKEPPAPVNLLF”, the protein production is reported as “failed”.
For “MKDKIIDNAITLFSEKGYDGTTLDDIAKSVNIKKASLYYHFDSKKSIYEQSVKCCFDYLNNIIMMNQNKSNYSIDALYQFLFEFIFDIEERYIRMYVQLSNTPEEFSGNIYGQIQDLNQSLSKEIAKFYDESKIKMTKEDFQNLILLFLESWYLKASFSQKFGAVEESKSQFKDEVYSLLNIFLKK”, the protein production was “failed”.
For “MKDKRTPMNAFRPKAQTALVVALSLFMAACSNNPLMRTSAATSSDVADEIDRTLEQAEQSQRAASNVSAVPAPSAADISSQLLPPLSSSPQQDERFDVNASEVPASSFFEALVAGTRYNVVVRPDVATTVSLRLSDVTVPEVMDIAADLYGLDITRSGRLYRVAADQVQTRLFPIDYLHFKRRGGSETRVSSGQVSSSRSNREGAGSNDNNEDNETRNLVGTTISTQTESDFWRDIRDALNMIVGGDNGQVVVNPGAGLVMVRAGADDLRLVENYLRKTELIMQRQVVLEAKILEVGLNEGYQQGIDWNDVQSSAGRADYFTSQSLGGQQIRTPDIGGLFSATVSAGDFTGLIELLGQQGNVQILSSPRISTVNNQKAVIKVGTDEFFVTDIDFDDNNSAVTATDSTSTSVELTPFFSGISLDVTPQIAEDGAITLHVHPSVSEVADQEKVITIGERDVTLPLARSTVRETDSVIRAESGQIVVIGGLIQNSSEDNNSAVPFFSEIPLLGELFKQRNFESRKSELVILLRPVVANAGQMQADVSASRERMNVLRELLNSSESVKPQPETAPR”, the protein production was “failed”.
For “MKDLIKVQQKLIPDLIDKMYRRFYILSTISQNQPVGRRSLSEHMDMTERVLRSETDMLKKQELIRVKPTGMEITNEGTEVLAQLGEYFNVYSDDHKLASAIKDKFHIKDVHVIPGDSDSNRTVKREMGQQAGQLLEGILYEDAIVSVTGGSTMACVSESIHLLPFNVFFVPARGGLGENVVYQANTIASSMAQQAGGYYTTLYVPDNVSESTYDTLMLEPSVMHTLDKIKQANITIHGIGDALKMAHRRQSSQNVIDNLQHHQAVGEAFGYYFDAQGQIVHKVKTIGLQLEDLENKDFIFAVAGGQSKGEAIKAYLSIAPENTVLITDEAAAKVILQ”, the protein production was “not failed”.
With “MKDPNSQYQIDYVLLFILFAIGIVSCCAIASAQASLPPFLQNVNFVLKQIQWYFIGFIAIGVIMIIDFDRYQKIAWYLYSFAMVLLIGLELQVPGAVTIKGATAWYRLPGIGNFQPSEIMKLFLIIVIGRIIANHNEKYFSQTIHDDFLLLGKIFATSLPPLLLIAKEPDLGNTMVISAMLAAMILVSGIRWRFIFGLVSGTFVAGSTLIYIFFTHTDFFKAHILKEYQLNRFYGWLAPYKYDAQGYQLRQAFLATGSGEMQGKGWENGQVYFPEPHTDFIFTNVAEQFGFLGASVIISLFFLLIFRMIHIALESNDPFGSYICAGTIGMFTFQVFQNIGMTIGLLPITGITLPLMSYGGSSLLTYMIAIGFILNVRSRTKIFMFK” the protein production was “failed”.
With “MKDTDETAFLNSLFMDFTSENELELFLKSLDEVWSEDLYSRLSAAGLIRHVISKVWNKEQHRISMVFEYDSKEGYQKCQEIIDKEFGITLKEKLKKFVFKIHNNRGVVVSEFIRST” the protein production was “not failed”.
For “MKDTFRLENQTIYFGTERAISASPQTIWRYLTETDKLKQWFPELEIGELGVNGFWRFILPDFEETMPFTDYAEEKYLGVTWDTGIIYFDLKEQAPHQTLLVFSESLPENFTTPRHKDIAGWSIVLNRLKQVVETPDAAPEKIDFPQIENHYLEKLTNLEN”, the protein production was “not failed”.
For “MKEGKWFASANNQNKFLDPRERGNILNYLKVCLLLARAVRRMHAAGLCHSDLSYKNVLIDPEQGHACIIDVDGLVVPGKFPPDVVGTPDFIAPEVVKTSHLLKEDPQRILPNITTDRHALSVLIYMYLFYRHPLRGGKIHDMDDEVRDESLAMGERALFIEHPTDRSNAVKLNQVKPSSLPWADPQKVPYTIMGPYLTQLFEKAFIDGLHDPSKRPTADEWETALVKTVDLIQPCQNTACEQKWYVFSGKTKPVCPYCLEHHHHHH”, the protein production was “failed”.
